A short description of this data set: soluble on expression in E. coli; label from the status in PepcDB or PDB records.
“MNTRTIYLAGGSFWGLEAYFQRIDGVVDAVSGYANGNTKNPSYEDVSYRHTGHAETVKVTYDADKLSLDDILQYFFRVVDPTSLNKQGNDTGTQYRSGVYYTDPAEKAVIAAALKREQQKYQLPLVVENEPLKNFYDAEEYHQDYLIKNPNGYCHIDIRKADEPLPGKTKTAPQGKGFDAATYKKPSDAELKRT”: the “soluble on expression in E. coli” value is given as “soluble”.

As to “MNTTDRQITFSALSCLLSYPDEEWRAELPDWKALIQEIGNRQIREKLLHFFETSASYSPEALIEHYVYTFDFGKKTNMYVTYFNSGEQRERGIELLHLKNTYEQSGFLPTEKELPDYLPLMLEFAAAAEIEAARSVFEKYLSNVRELASRLEKNDSIYAELLHVLLAALENIGVRESVEGAVQALEHHHHHH”, the “soluble on expression in E. coli” value is recorded as “not soluble”.

Take “MNTTQRADQQTSADRRRRELLEAADRVVLRDGPHASMNAIAAEAGITKPILYRHFGDKGGLYAALAVRHTDALLASLRAALDAPAQRRQRVEATLDTYLAAIEARPQVYRFLMHPAESAGTPGDQSEQGFDVGKHSAPLLRRMGEELAQVIEERLDVGPGTQQLARVWGHGIVGMMHAAGDWWLGERPCPREELVRTLADLLWGRLAEAGDKEGGPGF”: the “soluble on expression in E. coli” value is recorded as “not soluble”.

As for “MNTTVEKQQIITSNTEQWKMYSKLEGKEYQIHISKPKQPAPDSGYPVIYVLDGNAFFQTFHEAVKIQSVRAEKTGVSPAIIVGVGYPIEGAFSGEERCYDFTPSVISKDAPLKPDGKPWPKTGGAHNFFTFIEEELKPQIEKNFEIDKGKQTLFGHSLGGLFALHILFTNLNAFQNYFISSPSIWWNNKSVLEKEENLIIELNNAKFETGVFLTVGSLEREHMVVGANELSERLLQVNHDKLKFKFYEAEGENHASVVPTSLSKGLRFISYV”, the “soluble on expression in E. coli” value is listed as “soluble”.

“MNVDARVGVAVDGAQSALNTATTVHSSVVMTQIKPQAKLGTFQNLLAGGIAGAISKTCTAPLARLTILFQLQGMQSEGAVLSRPNLRREASRIINEEGYRAFWKGNLVTVVHRIPYTAVNFYAYEKYNLFFNSNPVVQSFIGNTSGNPIVHFVSGGLAGITAATATYPLDLVRTRLAAQRNAIYYQGIEHTFRTICREEGILGLYKGLGATLLGVGPSLAINFAAYESMKLFWHSHRPNDSDLVVSLVSGGLAGAVSSTDDKLFDAHNYVATYPLDLVRRRMQVEGAGGRARVYNTGLFGTFKHIFKSEGFKGIYRGILPEYYKVVPGVGIVFMTYDALRRLLTSLPD”: the “soluble on expression in E. coli” value is listed as “soluble”.

Regarding “MNVLFTSVPQEDVPFYQEALKDLSLKIYTTDVSKVPENELKKAELISVFVYDKLTEELLSKMPRLKLIHTRSVGFDHIDLDYCKKKGILVTHIPAYSPESVAEHTFAMILTLVKRLKRIEDRVKKLNFSQDSEILARELNRLTLGVIGTGRIGSRVAMYGLAFGMKVLCYDVVKREDLKEKGCVYTSLDELLKESDVISLHVPYTKETHHMINEERISLMKDGVYLINTARGKVVDTDALYRAYQRGKFSGLGLDVFEDEEILILKKYTEGKATDKNLKILELACKDNVIITPHIAYYTDKSLERIREETVKVVKAFVKGDLEQIKGNFVVGPS”, the “soluble on expression in E. coli” value is on record as “soluble”.

“MNVTSVTSEDGVKEFEKIVVEPEDIEYVEIPADAKNVDLTRHRIKEIGDYSWLTHVEHFSFRWNLIKKIENLDCLTTLTHLEFYDNQITKVENLDSLVNLESLDLSFNRITKIENLEKLTKLKTLFFVHNKITKIEGLDTLTELEYLELGDNRIAKIENLDNNLKLDRLFLGANQIRLIENVDHLKKLTVLSLPANAITVVDNISGLHNLKEIYLAQNGIKYVCGIDEHLPLEILDFNQNRLEKVENIHQLKTLTDFWARGNKLDNWSIMDELVELPQLNSVYLDFNPIASVDTYRGKVIHLLQQITRLDGTQCREHSMLRPPKEEKNETELSRVVLDNPSDDHPTESV”: the “soluble on expression in E. coli” value is “not soluble”.

“MNWPLLYDMQRMLDRRIETEHGLMEEDLFARKQLAFLVELGELANETRCFKFWSIKPPAPAERVLEEYVDGLHFLLSLGLECGLFYEENEAPSAGRPLVEQFLAVFRAAERFGETRARGEYDALFAEYWRLGVALGFSSDDIEAAYRRKNEVNHKRQNERY”: the “soluble on expression in E. coli” value is “not soluble”.

For the sequence “MNYFFCADESRQVNEDPIGSGCRRQCYVLIECPPPWMANEFDSKAVPANLRSLENEFYAVEPDGILLFIYSEELRQNYLTRILIFRPMMGYSGGYIKQEIHVSSLEDVAIVLKDWLAGKDIADTDINPHTRDILVCTHGTHDKCCAKYGIPFYRQAKNIVADLAVESVRIWQSSHFSGHRFAPTILDLPQGRYYGKLDCQSFTNILTYTGDINCLKSIYRGWGILPFPAQVMEGELIFLHGWQWFNYKVSCCFIEQSEDECFNRIEISAILPDGDIKTYQADVVEDESKSIYLIGDCHGIEPELIPKYSVNNLIQII”, the “soluble on expression in E. coli” value was “not soluble”.

In the case of “MNYGFVKVAAAVPHVKVADCKFNVERIESQIAIAEGKGVQIIVFPEMSITGYTCGDLFGQQILLEEAEMGLMQILNNTRQLDIISIVGMPVVVNSTVINAAVVIQKGKVLGVAAKTYLPNYKEFYEQRWFTSALQLTEDTVRLCGQIVPIGANLLFETSDTTFGIEICEDLWATIPPSSSLALQGAEIIFNMSADNEGIGKHHYLCSLISQQSARCIAGYVFSSCGFGESTTDVVFAGNGLIYENGSLLARSKRFCMEEQLIISEIDVERIRAERRINTTFAASQGNPGDKKAISVATEFVNSKELTLTRDFNSHPFVPQGAELDEHCEEVFSIQIAGLAQRLVHTKAKTAVVGISGGLDSTLALLVCVKTFDKLGLPRKDILGVTMPGFGTTDRTYNNAIDLMKSLGISIREISIQDACIQHFKDIDHDINVHDVTYENSQARERTQILMDIANQTWGMVVGTGDLSELALGWATYNGDHMSMYGVNGSIPKTLVKYLVQWVAENDMDEDAKATLLDIVDTPISPELIPADENGEIKQKTEDLVGPYELHDFFLYYFLRFGFRPSKIYYLANIAFKDVYDKETIKKWLSTFFRRFFNQQFKRSCLPDGPKVGSISISPRGDWRMPSDASSTIWLKEIEDLLEHHHHHH”, the “soluble on expression in E. coli” value is given as “not soluble”.

For “MNYIQLQRFNMSKVASIVDVLQGKVAIGETVTVRGWVRTRRDSKAGLSFLAVYDGSCFDPIQAIINNDIENYESEILRLTTGCSVIVTGKVVESPAEGQAVELQAEKVEVTGFVEDPDTYPMAAKRHSIEYLREVAHLRPRTNIIGAVARVRHCLSQAIHRFFHEQGFYWVATPLITASDTEGAGEMFRVSTLDLENLPRSENGKVDFSQDFFGKESFLTVSGQLNGETYACALSKIYTFGPTFRAENSNTTRHLAEFWMVEPEVAFATLADNAKLAEDMLKYVFRAVLAERKDDLQFFEKHVDKDVITRLENFVNSDFAQIDYTDAIDVLLKSGKKFEFPVSWGIDLSSEHERFLAEEYFKSPVVVKNYPKDIKAFYMRLNDDEKTVAAMDVLAPGIGEIIGGSQREERLEVLDKRMEEMGLNPDDYWWYRDLRKYGSVPHSGFGLGFERLIVYVTGVQNIRDVIPFPRAPRNANFLEHHHHHH”, the “soluble on expression in E. coli” value is “soluble”.

Turning to “MNYPLIFAENQRIETERLILRPVTLADAEDMYEYASDEETVRYVFLKNQTIAETRQNIAKFFMGEPLGKYGIEVKETGKMIGTIDLRVNETNNIGELGYVLNRTFWGNGYMPEAATALVELGFAKMKLMRIFALHDQDNPASGRVMEKIGFTYEGTLPNARISKGKIVTDVYRGMTLETWQNRQK”, the “soluble on expression in E. coli” value was “soluble”.

As to “MNYYSEKIEVVKLADQVAAKLQQLIGSGEYKKGDKIPTEPELMARFGVGRSTVRESVRILANAGLLSVLQGKGTFVQDTTVVAEPLHQRLRRANNKELNEVRHMLEITMVQKAAENRTEKEVKQMRTLLNQRRRAIEEQLQDECLNADIAFHVVIAEASKNQVLIDLYKTFSKVISEYFQTEYPDTKAYKRSQALHEKLCDAIATKESKKAAEYMSQILSLD”, the “soluble on expression in E. coli” value is “not soluble”.

For the sequence “MPAAGQAPGPECPDVLIIGGGPAGCAAAIVLAQQGWAVTLLEKEQHPRFHIGESLLPMNIPILERLGVLEQVRDIGVLKRGADFPNDAGGYNTFRFSHALDAKADYAFQVPRAQFDQVLFARAREVGVDAREQVKVESVAFDGEQPVLQARGVDGVQQFRPRYLLDASGRDTFMGNRLKLKRANAKHQSAAVFSHFRGVTRRPGEDAGNISIYRHAHGWMWLIPLPDDVMSVGAVCYPDYMKTRKGDSEGFLLRTLALNPEVAARMADAERVAPVHATGNYAYECTRMSGPRWLLLGDAYTFVDPMFSSGVFLAMHSAERGAAMVDAVLRAPHREASLQRALSRELARGLSEFKWFIYRFTSPTMRALFAQPQNVWQVEQAVVAMLAGDVFDSPKVRRRLRVFRAIYSVTALSMLPRAWHAWRHRRRQARLGFDGDTLHRDAPLEHHHHHH”, the “soluble on expression in E. coli” value is listed as “not soluble”.

As to “MPAWAARLGASRDQQRALEEERSRTQAALQVMPHMLIELDADERLLRGHPGWLDRLPTLGPMAPGQGLQDFLPVDLATEVRRVLAEVETTGAPVSRDWQVRQAGARVWLAISAARLPPLA”, the “soluble on expression in E. coli” value is “not soluble”.

As for “MPCRGLHAIPAGPPEFPELATIYVVCGDKLNVMIDAGVTNSIMDSSFLEKLDLVILTHIHIDHIGLLPEILDRYKNAKVMIKNGFKKFLTTEDGVRRLNESSEKVLGDLYYIYGEFTKIDPDKVVEVEGGEMIDIGDGKTLKIIYTPGHAKHHISVVSDDILFTGDSGGAYFNGAVIPTTPPPLDYDNYVNSLRLQISLKPKVVGLAHGGLVSPNILEQHLDQMLGKESFDIGEIDIGGIGGEILRKQVEVNLRGLNEALGRNKKTLLEHHHHHH”, the “soluble on expression in E. coli” value is reported as “not soluble”.

“MPEEKQKKSVLEKALKRIEENFGKGSIMILGDETQVQPVEVIPTGSLAIDIATGVGGYPRGRIVEIFGQESSGKTTLALHAIAEAQKMGGVAAFIDAEHALDPVYAKNLGVDLKSLLISQPDHGEQALEIVDELVRSGVVDLIVVDSVAALVPRAEIEGAMGDMQVGLQARLMSQALRKIAGSVNKSKAVVIFTNQIRMKIGVMFGSPETTTGGLALKFYATMRMEVRRGEPIKEGKDVIGNVISVKIVKNKVAPPFKTAQTYIIYGKGIDREYELFNIAVNEGIVDRKGSWYYYTTLKGEEVSLGQGSSNAVQFLKDNPEIAGEIERRIREKYGLLSVEKEEQRKEKKSSGEEAS”: the “soluble on expression in E. coli” value was “soluble”.

Take “MPEITESERAYHLRKMKTRMQRVDVTGDGFISREDYELIAVRIAKIAKLSAEKAEETRQEFLRVADQLGLAPGVRISVEEAAVNATDSLLKMKGEEKAMAVIQSLIMYDCIDTDKDGYVSLPEFKAFLQAVGPDLTDDKAITCFNTLDFNKNGQISRDEFLVTVNDFLFGLEETALANAFYGDLVD”: the “soluble on expression in E. coli” value is reported as “soluble”.

For the sequence “MPEPHPAPQPYTVAALYQFRALPDPAALRAELLALGERLELCGTLIVADEGINGTVAGSAAAIAELHAFLLASGFDRLEYKESQASEKPFKRYKVRLKKEIVTLGVPVAPREQVGTYLDPQAWNDLLADPEVIVVDTRNRYEVKAGTFQGAVDPEIDSFREFPAWVDEHLAGAEGKKIAMFCTGGIRCEKSTSLLLQKGFQDVYHLKGGILKYLEDVPQAQSRWDGECFVFDGRVTVGHGLQEGDAVMCHSCGWPLTAQERAHPQFEEGVSCEHCFDETTDVQKAAFRERQRMYEAGHLTLEHHHHHH”, the “soluble on expression in E. coli” value is on record as “not soluble”.

On to “MPEPTPTAYPVRLDELINAIKRVHSDVLDQLSDAVLAAEHLGEIADHLIGHFVDQARRSGASWSDIGKSMGVTKQAAQKRFVPRAEATTLDSNQGFRRFTPRARNAVVAAQNAAHGAASSEITPDHLLLGVLTDPAALATALLQQQEIDIATLRTAVTLPPAVTEPPQPIPFSGPARKVLELTFREALRLGHNYIGTEHLLLALLELEDGDGPLHRSGVDKSRAEADLITTLASLTGANAAGATDAGATDAG”, for which the “soluble on expression in E. coli” value is given as “soluble”.

Values taken from the DeepSol protein solubility set.
